The text below walks through data of publication PMC8211829 (Biochimica et biophysica acta. Biomembranes, 2021).

This data set concerns the molecule itself. Description: cross-linking.

B1: apoE(201–299) single Cys variant S223C (domain or fragment)
chain: QPLQERAQAWGERLRARMEEMGCRTRDRLDEVKEQVAEVRAKLEEQAQQIRLQAEAFQARLKSWFEPLVEDMQRQWAGLVEKVQAAVGTSAAPVPSDNH
Take B1: the binding result was “binds”.

B2: apoE(201–299) single Cys variant at E255 (domain or fragment)
chain: QPLQERAQAWGERLRARMEEMGSRTRDRLDEVKEQVAEVRAKLEEQAQQIRLQACAFQARLKSWFEPLVEDMQRQWAGLVEKVQAAVGTSAAPVPSDNH
Turning to B2, the binding result is reported as “binds”.
